In PMC11141937 (JCI Insight, 2024):

Experiments:
[1] = molecular target: SARS-CoV-2 Delta S protein on S-293T cells (SARS-CoV-2 Delta (B.1.617.2), strain); assay: flow cytometry on cells; conditions: one partner purified
[2] = molecular target: SARS-CoV-2 Omicron BA.1 S protein on S-293T cells (SARS-CoV-2 Omicron BA.1, strain); assay: flow cytometry on cells; conditions: one partner purified
[3] = molecular target: SARS-CoV-2 Omicron BA.2 S protein on S-293T cells (SARS-CoV-2 Omicron BA.2, strain); assay: flow cytometry on cells; conditions: one partner purified
[4] = molecular target: SARS-CoV-2 Omicron BA.4/5 S protein on S-293T cells (SARS-CoV-2 Omicron BA.4/5, strain); assay: flow cytometry on cells; conditions: one partner purified
[5] = molecular target: SARS-CoV-2 Delta S protein ectodomain (SARS-CoV-2 Delta (B.1.617.2), strain); assay: BLI; conditions: both partners purified
[6] = molecular target: SARS-CoV-2 Omicron BA.2 S protein ectodomain (SARS-CoV-2 Omicron BA.2, strain); assay: BLI; conditions: both partners purified

Measured: binding result

B1: O5C2 mAb (antibody, V domains shown)
VH: EVQLVESGGGLIQPGGSLRLSCAASGIIVSRNYMSWVRQAPGKGLEWVSILYAGGSSFYAEPVQGRFTVSRDNSKNTLFLEMNSLRVEDTAVYYCARDLQWGIDIWGQGAMVTVSS
VL: DIQMTQTPPSLSASVGDRVSISCRASQSTGSWLAWYQQKPGKAPKLLIYKTSSLESGVPSRFSGSGSGTEFTLTISSLQPDDVATYYCQHYDTYSSTFGQGTKVEIK
binds: all assays above
